B1: [35S]-methionine-labelled D2[IL3-2] probe (peptide)
chain: EAARRAQELEMEMLSSTSPPERTRYSPIPPSHHQLTLPDPSHHGLHSTPDSPAKPEKNGHAKDHPKIAKIFEIQTMPNGKTRTSLKTMSRRKLSQQKEKKATQ
modifications: [35S]-methionine-labelled
notes: also called [35S]-D2[IL3-2]

How the values were obtained:
[1] = biological target: T1, GST fused DAT[NT1] (M1-P26) (UniProt P08515 1-218 = GST); experiment: in vitro binding assay, FIG. 1G
T1 construct: also called GST-DAT[NT1]

[2] = biological target: T2, GST fused DAT[NT2] (A16-T43) (UniProt P08515 1-218 = GST); experiment: in vitro binding assay: GST fusion on glutathione beads with the [35S]-D2[IL3-2] probe, autoradiography
T2 construct: also called GST-DAT[NT2]

[3] = biological target: T3, GST fused DAT[NT3] (K35-D68) (UniProt P08515 1-218 = GST); experiment: as above
T3 construct: also called GST-DAT[NT3]

[4] = biological target: B1; experiment: conclusion from the peptide competition in the in vitro binding assay (GST-DAT[NT1] with [35S]-D2[IL3-2])

T3 sequence (P08515 1-218, tags or fused parts left off): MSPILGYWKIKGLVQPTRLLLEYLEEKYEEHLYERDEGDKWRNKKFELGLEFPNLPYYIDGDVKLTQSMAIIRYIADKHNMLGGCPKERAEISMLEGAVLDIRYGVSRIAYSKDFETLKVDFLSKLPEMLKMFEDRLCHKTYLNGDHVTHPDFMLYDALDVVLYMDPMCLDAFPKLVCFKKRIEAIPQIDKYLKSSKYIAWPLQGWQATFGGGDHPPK
T2 sequence (P08515 1-218, tags or fused parts left off): as above
T1 sequence (P08515 1-218, tags or fused parts left off): as above

B1: binds [1]; no binding [2]; no binding [3].

B2: purified DAT[NT1-1] (M1-V15) peptide (peptide)
peptide: MSKSKCSVGLMSSVV
notes: also called DAT[NT1-1] peptide
B2: binds [4].
